The results in this text go back to patent US20230174617A1 (PROGEN, published 2023).

The target in assay [1] is anti-DNP mouse IgE (Sigma). In words: BLI (Octet K2), fusion protein on sensor, anti-DNP mouse IgE as analyte, second test. How it is done: (§1) Specifically, 200 μl of D. W. was dispensed into a 96-well plate, and then an amine biosensor included in the kit was inserted to perform hydration for 10 minutes. Subsequently, after 200 μl of D. W. was additionally dispensed, EDC and NHS were mixed at 1:1 in an amount of 1/20 of the required sample amount and then diluted with D. W., and 200 μl of the resultant was dispensed into the 96-well plate. Next, the FcεRIα-modified IgG4 Fc protein and the FcεRIα-NTIG-IL-10Vm fusion protein were diluted to 10 μg/ml in a 10 mM acetate solution having a pH of 5.0, and then 200 μl of the resultant was added to the 96-well plate. After 200 μl of 1 M ethanolamine was added to the 96-well plate, the biosensor plate and the sample plate were placed in an Octet®-K2 instrument and measured. After the measurement was completed, 200 μl of a 1× kinetics buffer solution was added to the sample plate, and then a baseline was determined.

Assay [2] deals with anti-DNP mouse IgE (Sigma). As to the kind of experiment: BLI (Octet K2), fusion protein on AR2G sensor, anti-DNP mouse IgE as analyte, mean of three tests. As to the method: as §1
In general terms: BLI is a label-free optical method that tracks binding on a fibre tip over time.

The target in a further assay is human IgE. As to the kind of experiment: BLI (Octet K2), fusion protein on AR2G sensor, human IgE as analyte.
Assay [3] has as its target anti-DNP mouse IgE (Sigma). In words: BLI (Octet K2), fusion protein on sensor, anti-DNP mouse IgE as analyte, third test. As to the method: as §1
Assay [4] deals with anti-DNP mouse IgE (Sigma). In words: BLI (Octet K2), fusion protein on AR2G sensor, anti-DNP mouse IgE as analyte, first test. How it is done:
as §1

Assay [5] concerns the target anti-DNP mouse IgE (Sigma). In words: BLI (Octet K2), fusion protein on AR2G sensor, anti-DNP mouse IgE as analyte, second test. How it is done:
as §1

Assay [6] has as its target anti-DNP mouse IgE (Sigma). As to the kind of experiment: cell-based or functional assay.
Assay [7] deals with anti-DNP mouse IgE (Sigma). As to the kind of experiment: BLI (Octet K2), fusion protein on AR2G sensor, anti-DNP mouse IgE as analyte, third test. As to the method: as §1
The target in assay [8] is anti-DNP mouse IgE (Sigma). As to the kind of experiment: BLI (Octet K2), fusion protein on sensor, anti-DNP mouse IgE as analyte, first test. How it is done:
as §1

The target in assay [9] is T1, IL-10 receptor 1 (IL-10R1), IL-10R His-tag protein (UniProt Q13651 22-235, limits assumed).
T1 construct: not shown: His tag
T1 sequence (looked up): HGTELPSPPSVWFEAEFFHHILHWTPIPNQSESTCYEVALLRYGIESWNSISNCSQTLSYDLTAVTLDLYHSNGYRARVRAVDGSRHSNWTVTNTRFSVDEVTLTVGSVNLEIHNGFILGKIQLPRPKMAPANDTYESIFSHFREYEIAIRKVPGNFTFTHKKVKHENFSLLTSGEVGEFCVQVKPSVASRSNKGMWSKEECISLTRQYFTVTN
As to the kind of experiment: BLI (Octet K2), IL-10R His-tag protein on AR2G sensor, fusion protein 62.5 to 1,000 nM. As to the method:
(§2) For the analysis, the present inventors attached an IL-10R His-tag protein to a 96-well plate using a Dip and Read™ Amine Reactive 2nd Generation (AR2G) Reagent Kit (forteBio, Cat No. 18-5092). Specifically, 200 μl of D. W. was dispensed into a 96-well plate, and an amine biosensor included in the kit was inserted to perform hydration for 10 minutes. Subsequently, after 200 μl of D. W. was additionally dispensed into a new 96-well plate, EDC and NHS were mixed at 1:1 in an amount of 1/20 of the required sample amount and then diluted with D. W., and 200 μl of the resultant was dispensed into the 96-well plates. Next, the IL-10R His-tag protein was diluted to 10 μg/ml in a 10 mM acetate solution having a pH of 5.0, and then 200 μl of the resultant was added to the 96-well plates. After 200 μl of 1 M ethanolamine was added to the 96-well plates, the biosensor plate and the sample plate were placed in an Octet®-K2 instrument and measured. After the measurement was completed, 200 μl of a 1× kinetics buffer solution was added to the sample plate, and then a baseline was determined.

Assay [10] concerns the target T1, IL-10 receptor 1 (IL-10R1), IL-10R …. In words: BLI (Octet K2), IL-10R His-tag protein on AR2G sensor. How it is done:
as §2

Another assay concerns the target T2, complement C1q (UniProt P02745 23-245; P02746 28-253; P02747 29-245).
T2 construct: the method text names a C1q-HRP conjugate; also called C1q-HRP conjugate
As to the kind of experiment: ELISA, PG-11 coated at 2 µg/ml, C1q in varied concentration, OD 450 nm.

Assay [11] concerns the target T3, recombinant human neonatal Fc receptor (rhFcRn, R&D systems) (human, UniProt P55899 24-297; P61769 21-119).
T3 construct: Bought reagent; also called recombinant FcRn
As to the kind of experiment: SPR (Biacore 8K), rhFcRn amine-coupled on CM5, analyte in PBST pH 6.0, steady state affinity. How it is done:
(§3) As the analyzer, Biocore 8K (GE Healthcare, USA) was used, and all reagents used in the analysis were purchased from GE Healthcare. […] The experiment was performed at a flow rate of 30 μl/min at 25° C., an association of an analyte was performed for 60 seconds, and then dissociation was performed for 60 seconds. […] At this time, the buffer solution was replaced with a PBS buffer solution having a pH of 7.4 during regeneration.

Assay [12] deals with T4, Fc gamma receptor IIIa (FcγRIIIa) (UniProt P08637 17-208, limits assumed).
T4 construct: also called FcγR3a
As to the kind of experiment: BLI; concentrations and the immobilised partner are not given.

For assay [13], the target named is T5, Fc gamma receptor I (FcγRI) (UniProt P12314 16-288, limits assumed).
T5 construct: also called FcγR1
The description is as above.

The target of assay [14] is T3, recombinant human neonatal Fc receptor …. As to the kind of experiment: SPR, rhFcRn on CM5, analyte in PBST pH 6.0, steady state affinity. The source says: (§4) During the regeneration, a PBS buffer solution having a pH of 7.4 was used.
The target in a further assay is T6, FcγRIIb (UniProt P31994 46-217, limits assumed).
T6 sequence (looked up): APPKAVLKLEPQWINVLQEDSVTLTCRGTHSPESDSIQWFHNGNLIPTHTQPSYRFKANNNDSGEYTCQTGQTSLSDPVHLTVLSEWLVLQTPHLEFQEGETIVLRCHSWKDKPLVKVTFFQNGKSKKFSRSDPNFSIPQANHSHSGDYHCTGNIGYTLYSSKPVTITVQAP
In words: BLI, single trace with fit; PBS panel as control.

The next assay concerns the target T7, FcγRIIa (UniProt P12318 36-218, limits assumed).
T7 sequence (looked up): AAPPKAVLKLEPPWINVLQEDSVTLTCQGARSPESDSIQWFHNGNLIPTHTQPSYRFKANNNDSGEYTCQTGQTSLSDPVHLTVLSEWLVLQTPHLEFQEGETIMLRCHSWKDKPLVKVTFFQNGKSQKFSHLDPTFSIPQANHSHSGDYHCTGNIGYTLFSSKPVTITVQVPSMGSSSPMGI
In words: BLI, single trace with fit; PBS panel as control.

For a further assay, the target named is FcγRIIIb (UniProt O75015 17-200, limits assumed). In words: BLI, single trace with fit; PBS panel as control.
The target of assay [15] is T3, recombinant human neonatal Fc receptor …. In words: SPR, steady state affinity, rhFcRn on chip, pH 6.0. How it is done:
as §3, §4
(In general: In SPR one partner is held on a chip, and binding of the other changes the refractive index at the surface.)

T3 sequence (P55899 24-297 limits assumed, chain 1 of 2): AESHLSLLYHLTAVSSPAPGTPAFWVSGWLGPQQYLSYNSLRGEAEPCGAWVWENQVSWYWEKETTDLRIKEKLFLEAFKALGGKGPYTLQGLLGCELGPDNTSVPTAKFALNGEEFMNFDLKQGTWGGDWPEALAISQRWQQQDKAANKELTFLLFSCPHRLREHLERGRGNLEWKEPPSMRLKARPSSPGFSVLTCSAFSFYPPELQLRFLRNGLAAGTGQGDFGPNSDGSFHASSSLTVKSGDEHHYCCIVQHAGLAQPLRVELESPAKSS
T3 sequence (P61769 21-119 limits assumed, chain 2 of 2): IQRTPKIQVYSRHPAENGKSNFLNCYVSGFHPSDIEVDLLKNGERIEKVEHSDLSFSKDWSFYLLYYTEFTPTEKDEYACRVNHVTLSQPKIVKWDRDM
T2 sequence (P02745 23-245 limits assumed, chain 1 of 3): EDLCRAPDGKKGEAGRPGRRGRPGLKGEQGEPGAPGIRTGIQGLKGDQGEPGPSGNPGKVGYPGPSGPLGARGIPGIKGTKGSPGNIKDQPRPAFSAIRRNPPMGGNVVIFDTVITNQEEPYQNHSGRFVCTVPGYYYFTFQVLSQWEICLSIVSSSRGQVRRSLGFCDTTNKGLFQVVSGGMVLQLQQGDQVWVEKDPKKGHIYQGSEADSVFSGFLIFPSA
T2 sequence (P02746 28-253 limits assumed, chain 2 of 3): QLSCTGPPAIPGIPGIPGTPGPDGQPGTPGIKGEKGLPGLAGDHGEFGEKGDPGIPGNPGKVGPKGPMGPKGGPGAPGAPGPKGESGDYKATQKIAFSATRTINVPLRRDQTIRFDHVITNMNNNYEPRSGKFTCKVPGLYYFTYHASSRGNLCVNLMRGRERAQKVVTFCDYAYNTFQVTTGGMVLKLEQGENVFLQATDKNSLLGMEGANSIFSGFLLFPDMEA
T2 sequence (P02747 29-245 limits assumed, chain 3 of 3): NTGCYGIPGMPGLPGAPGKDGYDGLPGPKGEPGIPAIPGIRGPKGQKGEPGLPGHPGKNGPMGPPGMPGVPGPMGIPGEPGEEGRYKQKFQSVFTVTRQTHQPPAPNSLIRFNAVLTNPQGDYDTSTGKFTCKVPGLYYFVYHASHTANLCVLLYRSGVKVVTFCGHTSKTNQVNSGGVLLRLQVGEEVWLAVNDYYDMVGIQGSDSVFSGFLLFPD
T4 sequence (P08637 17-208 limits assumed): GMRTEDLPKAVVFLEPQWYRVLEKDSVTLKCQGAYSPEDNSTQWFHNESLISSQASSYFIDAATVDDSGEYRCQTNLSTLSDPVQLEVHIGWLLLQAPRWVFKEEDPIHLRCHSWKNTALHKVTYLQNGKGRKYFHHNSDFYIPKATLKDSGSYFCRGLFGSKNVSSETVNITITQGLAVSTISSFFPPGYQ
T5 sequence (P12314 16-288 limits assumed): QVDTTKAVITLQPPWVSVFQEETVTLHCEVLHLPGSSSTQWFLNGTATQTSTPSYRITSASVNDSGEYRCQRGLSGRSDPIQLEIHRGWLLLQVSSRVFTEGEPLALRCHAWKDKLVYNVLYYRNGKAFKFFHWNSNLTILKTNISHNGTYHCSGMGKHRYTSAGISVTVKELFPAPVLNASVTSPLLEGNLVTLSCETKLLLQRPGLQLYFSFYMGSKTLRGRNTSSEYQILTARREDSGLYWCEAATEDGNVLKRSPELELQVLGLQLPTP
Sequence of FcγRIIIb (O75015 17-200 limits assumed): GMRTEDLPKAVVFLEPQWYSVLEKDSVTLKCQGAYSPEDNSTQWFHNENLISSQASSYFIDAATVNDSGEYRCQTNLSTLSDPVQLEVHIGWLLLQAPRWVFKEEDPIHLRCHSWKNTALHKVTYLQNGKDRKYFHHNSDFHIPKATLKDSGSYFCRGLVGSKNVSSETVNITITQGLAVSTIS
Experimental for complement C1q: Subsequently, 100 μl of each diluted sample was loaded into each well and reacted overnight at 4° C. Next, washing was performed three times by adding 300 μl of a washing buffer solution to the plate each time, 200 μl of a blocking buffer solution (2% BSA/PBS) was added to each well and reacted at room temperature for 2 hours. 300 μl of the washing buffer solution was added to the plate, then washing was repeatedly performed three times, an anti-C1q antibody was diluted with an assay buffer solution to 10, 3, 1, 0.3, and 0.1 μg/ml by ⅓, and mixed (duplication) in an amount of 50 μl in each well, and then the resultant was reacted at room temperature for 2 hours. Then, the washing buffer solution was mixed in the plate by 300 μl each time and washing was repeatedly performed eight times. A C1q-HRP conjugate was diluted 400-fold, and 50 μl of the resultant was added to each well and reacted at room temperature for 1 hour. The washing buffer solution was added to the plate by 300 μl each time, washing was repeatedly performed eight times, 50 μl of TMB as a substrate was mixed, and the resultant was reacted at room temperature. When the color development reaction appeared in blue, 50 μl of a stop solution was added to each well to stop the reaction, and then optical density was measured using a microplate reader set at 450 nm.

B1: PG-110 (FcεRIα-NTIG-IL-10Vm) (Fc fusion)
chain: VPQKPKVSLNPPWNRIFKGENVTLTCNGNNFFEVSSTKWFHNGSLSEETNSSLNIVNAKFEDSGEYKCQHQQVNESEPVYLEVFSDWLLLQASAEVVMEGQPLFLRCHGWRNWDVYKVIYYKDGEALKYWYENHNISITNATVEDSGTYYCTGKVWQLDYESEPLNITVIKAPREKYWLQGGGGSGGGGSGGGGSEPKSSDKTHTCPPCPSHTQPLGVFLFPPKPKDQLMISRTPEVTCVVVDVSQEDPEVQFNWYVDGVEVHNAKTKPREEQFNSTYRVVSVLTVLHQDWLNGKEYKCKVSNKGLPSSIEKTISKAKGQPREPQVYTLPPSQEEMTKNQVSLTCLVKGFYPSDIAVEWESNGQPENNYKTTPPVLDSDGSFFLYSRLTVDKSRWQEGNVFSCSVLHEALHNHYTQKSLSLSLGAAGSGGGGGSGGGGSGGGGSSPGQGTQSENSCTHFPGNLPNMLRDLRDAFSRVKTFFQMKDQLDNLLLKESLLEDFKGYLGCQALSEMIQFYLEEVMPQAENQDPDAKAHVNSLGENLKTLRLRLRRCHRFLPCENGGSGGSGGSKSKAVEQVKNAFNKLQEKGIYKAMSEFDIFINYIEAYMTMKIRN
notes: Produced in a CHO DG44 cell line
For orientation: koff means a measure of how fast the partners let go of each other. The low end stands for a long-lived complex, the high end for a short-lived complex. One may read the kon as the rate constant with which the complex forms. Read a low kon as slow association. Broadly, the Kd is a measure of binding affinity in units of concentration. As to B1, the koff is 4.06e-05 s⁻¹ in [1], 7.59e-05 s⁻¹ in the assay with human IgE, 4.82e-05 s⁻¹ in assay [3] and 3.4e-05 s⁻¹ in [8]. The kon in assay [1] came out at 144000 M⁻¹ s⁻¹; in the assay with human IgE, 219000 M⁻¹ s⁻¹; in assay [3], 139000 M⁻¹ s⁻¹; in assay [8] it was 152000 M⁻¹ s⁻¹. For the same molecule, the Kd in assay [2] was 0.284 nM; in the assay with human IgE it was 0.346 nM; in [4], 0.224 nM; in assay [5], 0.282 nM; in assay [7] it was 0.346 nM. The “IC50 (nM), β-hexosaminidase release from mouse marrow-derived mast cells, column headed 'Fourth test' (equals the mean of the three tests)” value in assay [6] is 16.9 nM. In assay [6], the “IC50 (nM), β-hexosaminidase release from mouse marrow-derived mast cells, first test” value was 21.6 nM. Moreover, the “IC50 (nM), β-hexosaminidase release from mouse marrow-derived mast cells, second test” value in [6] came to 14.8 nM. Moreover, in assay [6], the “IC50 (nM), β-hexosaminidase release from mouse marrow-derived mast cells, third test” value was found to be 14.4 nM.

B2: PG-088 (NTIG-IL-10V) (Fc fusion)
chain: GGGGSGGGGSGGGGSEPKSSDKTHTCPPCPSHTQPLGVFLFPPKPKDQLMISRTPEVTCVVVDVSQEDPEVQFNWYVDGVEVHNAKTKPREEQFNSTYRVVSVLTVLHQDWLNGKEYKCKVSNKGLPSSIEKTISKAKGQPREPQVYTLPPSQEEMTKNQVSLTCLVKGFYPSDIAVEWESNGQPENNYKTTPPVLDSDGSFFLYSRLTVDKSRWQEGNVFSCSVLHEALHNHYTQKSLSLSLGKAAGSGGGGGSGGGGSGGGGSSPGQGTQSENSCTHFPGNLPNMLRDLRDAFSRVKTFFQMKDQLDNLLLKESLLEDFKGYLGCQALSEMIQFYLEEVMPQAENQDPDAKAHVNSLGENLKTLRLRLRRCHRFLPCENKSKAVEQVKNAFNKLQEKGIYKAMSEFDIFINYIEAYMTMKIRN
notes: also called dimeric IL-10 variant fusion protein
Molecule B2 had a dissociation constant Kd in [9] of 11.1 nM. In assay [10], the koff worked out at 0.0008 s⁻¹ and the kon was found to be 71100 M⁻¹ s⁻¹.

B3: PG-11 (GLP-1E-NTIG) (Fc fusion)
chain: HGEGTFTSDVSSYLEGQAAKEFIAWLVKGGPSSGAPPPSGGGGSGGGGSGGGGSEKEKEEQEERTHTCPPCPSHTQPLGVFLFPPKPKDQLMISRTPEVTCVVVDVSQEDPEVQFNWYVDGVEVHNAKTKPREEQFNSTYRVVSVLTVLHQDWLNGKEYKCKVSNKGLPSSIEKTISKAKGQPREPQVYTLPPSQEEMTKNQVSLTCLVKGFYPSDIAVEWESNGQPENNYKTTPPVLDSDGSFFLYSRLTVDKSRWQEGNVFSCSVLHEALHNHYTQKSLSLSLGK
notes: Produced in ExpiCHO and purified on protein A. The hinge is said in general to dimerise the fusion, but no copy number is stated for PG-11; also called PG-II
Consider B3, for which the binding result with complement C1q is recorded as “no binding (tested: 10.0 µg/mL)”; in [12], “no binding”; in assay [13] it was “no binding”; with FcγRIIb, “no binding”; with FcγRIIa, “no binding”; in the assay with FcγRIIIb it was “no binding”. The Kd in assay [11] came out at 397 nM; in assay [14] it was 256 nM. The “fold affinity against Rituximab” value in assay [15] is ~9.3 fold. Also, the “fold affinity against Trulicity” value in assay [15] is ~5.3 fold.

B4: PG-088m (NTIG-IL-10Vm) (Fc fusion)
chain: SHTQPLGVFLFPPKPKDQLMISRTPEVTCVVVDVSQEDPEVQFNWYVDGVEVHNAKTKPREEQFNSTYRVVSVLTVLHQDWLNGKEYKCKVSNKGLPSSIEKTISKAKGQPREPQVYTLPPSQEEMTKNQVSLTCLVKGFYPSDIAVEWESNGQPENNYKTTPPVLDSDGSFFLYSRLTVDKSRWQEGNVFSCSVLHEALHNHYTQKSLSLSLGAAGSGGGGGSGGGGSGGGGSSPGQGTQSENSCTHFPGNLPNMLRDLRDAFSRVKTFFQMKDQLDNLLLKESLLEDFKGYLGCQALSEMIQFYLEEVMPQAENQDPDAKAHVNSLGENLKTLRLRLRRCHRFLPCENGGSGGSGGSKSKAVEQVKNAFNKLQEKGIYKAMSEFDIFINYIEAYMTMKIRN
notes: also called monomeric IL-10 variant fusion protein
For B4, binding in assay [9] was put at a Kd of 29.2 nM. In [10], the “fold KD against the dimeric IL-10 fusion protein of Example 2-3” value was ~3 fold, the koff stood at 0.0006 s⁻¹ and the kon was determined as 20600 M⁻¹ s⁻¹.
